Measurements: the DeepSol protein solubility set

assay: soluble on expression in E. coli; label from the status in PepcDB or PDB records

Soluble on expression in E. coli, not soluble:
MGSDKIHHHHHHMGFDVEALKAALEAHGRVIRVVVAEVKGSAPREVGAAMLVWDGGQSGTIGGGTLEFEAADAARRQDAPYRLSTHALGPDLGQCCGGAVTLLSEVYTEVNIAQLTGQVISRAVAPGPEPLAVSRILNHARAQGLAPAPQLIAGWMIEPVACATRPLWIWGAGHVGRALVEVLAPLPDYAITWVDVMRSKYPQEIPASVTALPAQEPGRLVPHAPTEAYHLILTYSHQLDLALCHRLLEHGFDFAGLIGSKTKWARFRARLAALGHRPEQIARLTCPIGMPELGKHPHAIAIGVAAELMALSQRLDLKKEHSA, MSLKELYLIDALNIIFRNYHVMKNYPLLNTQGENVNAFIGFFKTLFFIIKEKNPEHLIITFDSEVPTFRKQKYPSYKATRDLPPDDLIPQIGWIKEGLLKAKIPIFEMEGYEADDLLASFAKKAAKNNYLTYIISPDKDLLQTMSEYVKILKIENNSFIEMDNEYVTKKFGVNSFQIKDYLAIVGDRSDNIPGIKGIGAKGAANLLREFKTLDGIYSNLEIINKKHRELLIKEKENAFLSYELVSLEENLKIPEIENFALKNFSEEIISLFEKHSAIALIKTYKKDILKQEKENADQKSLFKQEPTTNSLDDINTIDTENVKYRSITTKIELDDLIESLKKAKYISIDTETSSLDTYTAKLIGISISFKEFEGYYIPIEAKGKIYIEKNYIIQKFNNLFESNPKIIGQNYKFDYKILKNNGFNPIPPYFDTMIAAYLIDTNSKVSLDFLAEKYLMHKNIKYEDVIQKNDNFANISLEMATSYSSEDADITFRLFNIFTKKLKEDKLDKLMHEIEMPFNKVIIEMEEGHHHHHH, MGSDKIHHHHHHMNVLYVTVDALRADHVTPELMPNVSGFVDRSIEYERCYANGPGTPWSFPALLGSQYSGANDGVGIPGEDDSRPTLAEVLRDEGYETAGFTDNHFASSDYNYDRGMTTMFDAGATSSEKRLKQAVRKRLDHDGTLYQMLLRGHHLIDDLLVKIQGRDTRFTRAETLIDSLVDWIDERNDQWFAWLHPMDTHAPYEAPDDYQEQFLDEPIPRRRSQKLARKATHHPDELSDDEWELQQQLYKAECSYLDDQIGRLLDSFPEPERENTLLVFTADHGEMHGEHGLGGHPQQFWEEVIHVPCAISAPGFEATTVNEQAALIDIPPTILDAVGIDAPEYWDGMSVLPDEGTVQEREYVFVDVESELNRNHAGVRRSDNWKLMRHDDEGELLLDLDTNPEEDPEQTRLNDAPEAYRALTDSLDNHLDEMERRRSGETSGIEDEELIEDHLRELGYLE, MTGFDFSDKTVWVTGAGKGIGYATALAFVDAGARVIGFDREFTQENYPFATEVMDVADAAQVAQVCQRVLQKTTRLDVLVNAAGILRMGATDALSVDDWQQTFAVNVGGAFNLFSQTMAQFRRQQGGAIVTVASDAAHTPRIGMSAYGASKAALKSLALTVGLELAGCGVRCNVVSPGSTDTDMQRTLWVSEDAEQQRIRGFGEQFKLGIPLGKIARPQEIANTILFLASDLASHITLQDIVVDGGSTLGA, MIPRVRAPELPQNYPWLNTEQPLSIKQLNGRVVILDFWTYCCINCLHVLPDLKYLEQKYKDSLTVIGVHSAKFDNEQETENIRQAILRYDIEHPVLVDKDFRVWQEYAVRAWPTLMVIDPKGYVIGYVSGEGNRDKLDQLITQVIQEHQGAINFQQLSLTLEKQRQPLITPLAFPGKVLATPSGLFVADSGHHRIVVSDFNGEILHLIGNGKSGLTDGNFQEAQFSAPQGMAFDMENQILYLADTENHALRRVDINQQTVETIAGTGEQSRNIQPHGGVGLETALNSPWDLVNIENSLYIAMAGVHQIWQMDLASGVIKTYAGTGVEACLDASLTESAFAQPSGITNNEQELYIADSEISSIRGVGLVEPQEVRTVCGSGGLFGFGDVDGQGEDVRLQHCLGVEYFQNYLWVADTYNHKIKSVSPHTGNCQTVLGDGLAGLQNGQGKNTRFFEPSGLSAIDSYLYISDTNNHVIRRVDLRTLEVTTMQFNGLCAPDVCIPNNFLEHHHHHH, MGSDKIHHHHHHMDAPYVSMWTSCSGGCSNNMYQLPANYPMKEKRDNEAEHTEGRLSKNERIERQLNSLYDFRFNIVKSRTEYRAANTSGLYQPVTKFALNSFRRKLDVTAGITTSAENIRMILESDFANKVHPIREYLTALPLLNPAGHGYIKKLLNTVQVANPGEWEEYFTKWLVGVVANAMNDTGCQNHTCLVLTGDNQGQFKTWWLDNLCPSSLKNYLFTGKIDPQSKDILTLIAEYLFINIDDQLKELNKQNENALKNLITTPAVKYRRPYDIYIEEYPHLASFMASVNGNEFLTDPTGNRRFLPFEVLHIDKPTAESINMDNVYSEIMYLYRQGVRYWFNDAEIEELHLTNAEFEVQTVEFEMLMQYFEKPTEEEESLFFMTTAQILTCLRDVCPMQLSEKRLGEALRKAGFKRVQKRISNCNYSVYGYRIKPVSIPYTDNDYG, METATHYDLFIIGGGINGCGLARDAAGRGFKVGLAEMNDLASGTSSASTKLIHGGLRYLEYYEFRLVREALKEREIIWRMAPHIVRPLRFLLPYHKKLRPAWMLRFGLFIYDYLGNWNQKLWRSKTVNFSKSFCSILKEEYHKGFEYSDARVDDARLVIANARDAEKWGAVIKVRTEVLSLKSEEKKWVVILRDKLSGKESCVTASYVANMTGPWINHILSNVLDCKENPPVRLVRGSHILVPKLYAHDRAYIFQNGDGRILFSIPYQEEFTLLGTTDCGYQGDPADVHITDTEIDYICTAASEYFVQPVLRESIVWTYSGVRPLYDDGASKAQEITRDYVLKEMGTESTPRILNLYGGKITTYRKLAEDAMKFVEKALGKKGKPWTINSTLPGGDFPHNKLDTIENKIALLVPDLDAFTYRRLARSYGCEALMIFANGKADKGKNFGHGLYEVEVKWLMEKEWAKTCEDVLWRRSKLGLLFNKKEINALTAYMQKIQDNEQNS, MAAVDVNQPITGHKSAIIRNYNTNPRLIYQTVCGVNGPLVILNDVKFPQFSEIVKITLPDGSKRSGQVLEISKNKAVVQVFEGTSGIDAKNTICEFTGDILRTPVSEDMLGRIFNGSGKPIDKGPPVLAEDFLDINGQPINPWSRIYPEEMIQTGISAIDVMNSIARGQKIPIFSASGLPHNEIAAQIVRQGGLVQLPDRPHEQTNFAIVFAAMGVNMETARFFKQDFEENGSMENVCLFLNLANDPTIERIITPRIALTSAEFLAYQCKKHVLVVLTDMSSYAEALREVSAAREEVPGRRGFPGYMYTDLATIYERAGRVEGRDGSITQIPILTMPNDDITHPIPDLTGYITEGQIYVDRQLHNRLIYPPINVLPSLSRLMKSAIGEGMTREDHSDVSNQLYACYAIGKDVQAMKAVVGEEALSSDDLLYLEFLTKFEKNFITQGHYENRSVFESLDIGWQLLRIFPREMLKRIPESTLEKYYPRGGAKE, MTNLTFYAKIGISEEEHDSFVKEHQQISVLQGSDWAKIKNQWQNERIGIYKEEKQVASLSLLIKLLPLGRSIIYIPRGPVMDYLDRDLVAFTMKTLKDYGKTKKALFIKYDPAILLKQYALGQEEEEKPLALAAIKNLQEAGVHWTGLTMEIADSIQPRFQANIYTQENLEMQFPKHTRRLIKDAKQRGVKTYRVSQSELHKFSKIVSLTEKRKNISLRNEAYFQKLMTTYGDKAYLHLAKVNIPQKLDQYRQQLILINQDITRTQAHQKKRLKKLEDQKASLERYITEFEGFTDQYPEEVVVAGILSISYGNVMEMLYAGMNDDFKKFYPQYLLYPNVFQDAYQDGIIWANMGGVEGSLDDGLTKFKANFAPTIEEFIGEFNLPVSPLYHIANTMYKIRKQLKNKH, MRINKPFSDDSNTVVFVSSKTYGVKEEAAHNPNVEFGVVLPTDFPAFNRALVQFLKRKKTKLNINLDSLIELYKKNENSGCFHTAIKTVITSVTFCETTPFTMKTKPEKNVEVAVQCAVEYHNLVKEYET, AHHHHHHGSLSERMLKALNDQLNRELYSAYLYFAMAAYFEDLGLEGFANWMKAQAEEEIGHALRFYNYIYDRNGRVELDEIPKPPKEWESPLKAFEAAYEHEKFISKSIYELAALAEEEKDYSTRAFLEWFINEQVEEEASVKKILDKLKFAKDSPQILFMLDKELSARAPKLPGLLMQGGE, MGSDKIHHHHHHMTKHLDVGQCLTIIEGTNTALKSYMDHFDFMEAAISRVLELEGSLKGKGGEALLRNYQELQLPAIRAARAFISSMKEMGEKLRSLILSFEPSENGMVSEDFYRNQVTRGYDRFEQFMEQNKAEVDAIAASVSHIIDLGKLDIRHVQDRVDDARKHANDTVEGLYELDHEGMRLMRELQRDMAELKAILKKVTEWTVSGGALLNGVDLNDVRSHFADKTLHTKAPEVSVKLSSPNPLIQYANDFPLRFKYDTMRSIMKVFDLSHHHKWFSNRIKSLPLTSLFIMARWNVNTKSDNYLKVH, MSLLPGPLLIPSDSSTELTQTVLEGESISCFQVGGEKRLCLPQVLNSVLREFTLQQINTVCDELYIYCSRCTSDQLHILKVLGILPFNAPSCGLITLTDAQRLCNALLRPRTFPQNGSVLPAKSSLAQLKETGSAFEVEHECLGKCQGLFAPQFYVQPDAPCIQCLECCGMFAPQTFVMHSHRSPDKRTCHWGFESAKWHCYLHVNQKYLGTPEEKKLKIILEEMKEKFSMRSGKRNQSKTDAPSGMELQSWYPVIKQEGDHVSQTHSFLHPSYYLYMCDKVVAPNVSLTSAVSQSKELTKTEASKSISRQSEKAHSSGKLQKTVSYPDVSLEEQEKMDLKTSRELCSRLDASISNNSTSKRKSESATCNLVRDINKVGIGLVAAASSPLLVKDVICEDDKGKIMEEVMRTYLKQQEKLNLILQKKQQLQMEVKMLSSSKSMKELTEEQQNLQKELESLQNEHAQRMEEFYVEQKDLEKKLEQIMKQKCTCDSNLEKDKEAEYAGQLAELRQRLDHAEADRQELQDELRQEREARQKLEMMIKELKLQILKSSKTAKEEGHHHHHH, MYPSDFASALESLSLKEMRQAIHRLLDIRDENTWMLFGTLPFYACSPDEDDQKLLRRLRAAKNVTVRNDPDGRSRLNVNIFDGNIIVTDFGDTPPLGNIQTDSLPSAYEKWRETKLAKELSCHCPNVRCLGPNVLVKNSYYQDTDFTKRQARS, MEYGCQPNVLKKTILKMVKRRIHVEGAKKAVNEALLNSQAKAAEEICRIAYESPGGVVFLGAPTGAGKTEVFMAPLLASFASKRPIAARGFLVEPMHSLIKAMVDRLKTSIETLGVSEDHGETVQPTFLYTAPITVTTPDTYFYGFAASRVYRILTHEGVETGRFSMPVGLQATSYTVFDEAHLVQDEVFLSPRLLSLVVAALARAGGLIVVSSATLPSYYKTVIREKLGDWRVEEV

Soluble on expression in E. coli, soluble:
MAHHHHHHMMYSKNDEFNVKKEMDMNLKCDNVNLDIWNTSFLNNETLNEDIFIHIGNKLLKMYYTTNHNIPSETLYSLLYEMKNGYNNVPYHNSIHAAMVTHHCNVLVSNLNTANILRDNELGALFVASLGHDIGHFGRTNIFLKNCCNFLSIIYNDKSILENYHCSYLFNILLKDENNIFKNEDPKCLLALRQQIIELILATDMSKHIKILAQFRIKSIKIKSYIEKNIILCLKMIIKAADLSHNCVDWSEHYQWVKRLVNEFYYEGDELFQMGYKINPLFDRNCHNNFIQIQRTFLKELVYPLIISLKTLDNTSITQDMINNVKRNYSKWTKI, MLIFKIFRRSEWDDFRRAGATAGAPVDLADGYIHFSTAAQVAETAAKHFTAESDLVLVAIDPDRAGPDLKWEPSRGEQLFPHLYRRLTLDDVVWDKSLPLGATGHIFPEGLWLEHHHHHH, MSLDRKLKGSVEEKTLEYLRKRPEIYMALSTGIVNLNGLAALISKENDGMNQLSIRSVLQKMIRDGLVSDYRKSTDDLLKRSKVTLQDKVSVITSRRKIDIDFLSVTFLTDSVVYIVDETRAKNIPKDALIERNVSLIHIFSPPEIVTTPGFAMNVVQRIYAANVNILQLISCSNETMIVVNRDDAISAYSALTSYEGHHHHHH
